Measurements taken from patent publication US20230331827A1, “POTASSIUM CHANNEL INHIBITORS” (priority 2017, published 2023).
Like-named read-outs stand apart in the source and are kept apart here.

Tests used:
human Kv1.1 (huKv1.1) = molecular target: T1, human Kv1.1 (huKv1.1) (Homo sapiens, UniProt Q09470); experiment: QPatch automated patch-clamp, CHO-S cells expressing huKv1.1 (Examples 20-21); assay type: cell-based
T1 construct: expressed in transfected cells; host or cells: Freestyle CHO-S
Description: 1. The effect of these KnotBodies on cells expressing human Kv1.1 (huKv1.1) and Kv1.3 (huKv1.3) channels was assessed using QPatch automated patch-clamp platform (Sophion).
To generate huKv1.1 expressing cells, Freestyle CHO-S cells (Cat. no. R80007, Life Technologies, California, USA) were transfected with pINT50-Tr plasmid encoding huKv1.1 gene using the MaxCyte STX (MaxCyte) transfection system. In pINT50-Tr plasmid, huKv1.1 gene is under the control of a CMV promoter. 64 µg of the plasmid DNA were added to 400 µl of Freestyle CHO-S cells (at a density of 1 × 10^8 cells/ml) in Electroporation Buffer (GE Healthcare Life Sciences, Cat. no. EPB1) in an OC-400 processing assembly (MaxCyte). Following electroporation, the cells were transferred to a well of a 24-well plate containing 200 U/ml DNAse I (Sigma, D4263) and incubated for 20 minutes at 37° C. and 5% CO2. The cells were then transferred into a 100 ml shaker flask containing 20 ml of CD Opticho Media (Thermo Fisher Scientific, Cat.No 12681-011,) supplemented with 8 mM L-Glut (Thermo Fisher Scientific, cat. no. 25030-024). The cells were incubated for 24 hours at 37° C. and 5% CO2 (and 75% humidity and shaking at 800 rpm) prior to testing using automated patch clamp electrophysiology.
(§1) For the testing of Kv1.1 and Kv1.3, CHO-S expressing huKv1.1 (described above) or CHO cells stably expressing huKv1.3 (Charles River Lab) were analysed using the QPatch electrophysiology assay in the presence or absence of the KnotBody fusions. Internal and external physiological solutions were freshly prepared prior to the assay. The extracellular solution contained 145 mM NaCl, 4 mM KC1, 2 mM CaC12, 1 mM MgC12, 10 mM HEPES and 10 mM glucose; the pH was adjusted to 7.4 with NaOH; the osmolarity was ~ 305 mOsm/L. The intracellular solution contained: KF (120 mM), KC1 (20 mM), HEPES (10 mM) EGTA (10 mM); the pH was adjusted to 7.2 with KOH; osmolarity was ~ 300 mOsm/L.
(§2) A series of depolarising voltage (channel activating) pulses were used to monitor the channel currents upon adding control (extracellular solution) to define a control baseline of current activity. To these measured control currents four, ascending concentrations of KnotBodies (including previously described KB_A12_ShK and KB_A12_KTX described in Example 8) or parental antibody isotypes (control molecules) were applied to the external bathing solution. KnotBodies KB_A12 and KB_A07 (EETI-II fusions) were used as isotype controls for the testing. From a holding voltage of -80 mV a depolarising, activating voltage pulses of +30 were applied for 300 ms, every 10 seconds. The elicited, maximum outward current values measured during the activating step for each solution exchange period, averaged (n = 3 - 6 for each concentration applied) and plotted as concentration-response curves (see FIG. 33). From these concentration-response curves IC50 values were calculated (see Table E20).
(§3) For the testing of Kv1.1 and Kv1.3, CHO-S expressing huKv1.1 (see Example 20 and below) or CHO cells stably expressing huKv1.3 (Charles River Lab) were analysed using the QPatch electrophysiology assay in the presence or absence of the KnotBody fusions - see details in Examples 19 and 20.
In addition to the CHO-S transiently expressing huKv1.1 (described in Example 20), CHO-S cells with poly-clonal stable expression of huKv1.1 cells were also made and used in the QPatch electrophysiology assay. To generate the polyclonal stable huKv1.1 cells from the transiently expressing cells described in Example 20, after a 24 hour incubation period the selection antibiotic Puromycin (catalogue no. A1 1138-03, Life Technologies, California, USA) was added to culture media. Then, for the first 14 days puromycin was at 10 µg ml-1 media; at days 15-28 puromycin was at 20 µg ml-1 media. Cell cultures were seeded at 2.5 x 10^5 cells ml^-1 into fresh culture media and puromycin twice per week through this selection growth period. […]

human Kv1.3 (huKv1.3) = molecular target: T2, human Kv1.3 (huKv1.3) (Homo sapiens, UniProt P22001); experiment: QPatch automated patch-clamp, CHO cells stably expressing human Kv1.3 (Examples 19-21); assay type: cell-based
T2 construct: host or cells: CHO
T2 sequence (P22001 whole entry): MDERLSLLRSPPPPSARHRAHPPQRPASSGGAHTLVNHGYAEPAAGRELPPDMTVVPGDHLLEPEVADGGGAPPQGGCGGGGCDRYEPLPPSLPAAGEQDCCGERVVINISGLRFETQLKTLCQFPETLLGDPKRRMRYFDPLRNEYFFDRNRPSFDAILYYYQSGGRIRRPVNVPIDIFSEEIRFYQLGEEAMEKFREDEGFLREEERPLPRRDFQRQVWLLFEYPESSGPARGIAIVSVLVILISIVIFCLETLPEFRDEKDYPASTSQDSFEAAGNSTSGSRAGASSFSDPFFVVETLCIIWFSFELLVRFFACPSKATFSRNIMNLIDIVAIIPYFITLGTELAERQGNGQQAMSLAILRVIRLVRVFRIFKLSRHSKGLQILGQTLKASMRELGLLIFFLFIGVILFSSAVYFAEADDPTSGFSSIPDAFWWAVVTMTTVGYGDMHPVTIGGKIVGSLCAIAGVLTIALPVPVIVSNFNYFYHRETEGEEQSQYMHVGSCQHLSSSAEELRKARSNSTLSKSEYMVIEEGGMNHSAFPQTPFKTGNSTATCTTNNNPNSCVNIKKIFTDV
Description: The effect of these KnotBodies on cells expressing human Kv1.3 (huKv1.3) channel was assessed using the QPatch automated patch-clamp platform (Sophion, Ballerup, Denmark). For the testing of Kv1.3 ion channel currents, CHO cells stably expressing human Kv1.3 (GenBank accession number NM_002232.2; cell line catalogue number CT6133, Charles River Discovery, Cleveland, USA) were subjected to a QPatch electrophysiology assay in the presence or absence of the KnotBody fusions or the antibody isotypes (negative controls). Internal and external physiological solutions were freshly prepared prior to the assay. The extracellular solution contained 145 mM NaCl, 4 mM KC1, 2 mM CaC12, 1 mM MgC12, 10 mM HEPES and 10 mM glucose; the pH was adjusted to 7.4 with NaOH; the osmolarity was ~ 305 mOsm/L. The intracellular solution contained: KF (120 mM), KC1 (20 mM), HEPES (10 mM) EGTA (10 mM); the pH was adjusted to 7.2 with KOH; osmolarity was ~ 300 mOsm/L.
as §2, with “(including” for “(including previously described”, “KB_A12_KTX as previously” for “KB_A12_KTX”, “+30 mV” for “+30”, “32).” for “33).”, “calculated.” for “calculated (see Table E20).”
as §1, §2, §3

[1] = four-point curves of FIG. 33, Table E20
[2] = Kv1.1 IC50 over Kv1.3 IC50, Table E20
[3] = four-point curves of FIG. 33, Table E20, read-out: Kv1.3 IC50
[4] = huKv1.3, four-point curves of FIG. 32, Table E19, read-out: IC50

T1 sequence (Q09470 whole entry): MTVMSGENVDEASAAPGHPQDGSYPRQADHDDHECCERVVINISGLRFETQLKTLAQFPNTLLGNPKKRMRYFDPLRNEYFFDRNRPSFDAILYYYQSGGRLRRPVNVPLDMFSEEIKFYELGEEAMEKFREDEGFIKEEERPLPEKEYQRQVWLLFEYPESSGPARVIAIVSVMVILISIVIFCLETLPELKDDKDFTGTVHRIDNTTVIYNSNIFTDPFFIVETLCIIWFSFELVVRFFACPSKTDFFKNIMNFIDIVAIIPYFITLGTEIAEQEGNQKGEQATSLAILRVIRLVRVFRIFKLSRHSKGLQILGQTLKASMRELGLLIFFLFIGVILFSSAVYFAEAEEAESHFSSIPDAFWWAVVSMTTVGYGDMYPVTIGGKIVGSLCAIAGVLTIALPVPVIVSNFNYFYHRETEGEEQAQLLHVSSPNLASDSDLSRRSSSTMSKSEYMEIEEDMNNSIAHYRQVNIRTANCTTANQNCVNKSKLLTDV

Molecule | IC50 (human Kv1.1 (huKv1.1); [1]) | Fold difference (human Kv1.3 (huKv1.3); [2]) | IC50 (human Kv1.3 (huKv1.3); [3]) | IC50 (human Kv1.3 (huKv1.3); [4]) | IC50 (human Kv1.1 (huKv1.1); Table E21) | Fold difference (human Kv1.3 (huKv1.3); Kv1.1 IC50 over Kv1.3 IC50, Table E21) | IC50 (human Kv1.3 (huKv1.3); Table E21, read-out: Kvl.3 IC50)
KB_A12_Odk2 short: truncated OdK2 in VL CDR2 of KB_A12, IgG (antibody, V domains shown) VH: EVQLVESGGGLVRPGGSLRLSCAASGFTFSSYAMSWVRQAPGKGLEWVSAISGSGGSTYYADSVKGRFTISRDNTKNSLYLQMTSLRADDTAFYYCVKDFGPGYGTGWFDYWGPGTLVTVSS VL: QSVLTQPPSVSEAPRQRVTITCSGSSSNIGNNAVNWYQQLPGKAPKLLIYAAGRVKCRGSPQCIQPCKDAGMRFGKCMNGKCHCTPKANSGVSDRFSAAKSGTSASLAINGLRSEDEADYYCAAWDDSLNGYVFGTGTKLTVLG | 380 nM | 8 | 49 nM | 64 nM |  |  | 
KB_A12_HsTx1 R14A (antibody, V domains shown) VH: EVQLVESGGGLVRPGGSLRLSCAASGFTFSSYAMSWVRQAPGKGLEWVSAISGSGGSTYYADSVKGRFTISRDNTKNSLYLQMTSLRADDTAFYYCVKDFGPGYGTGWFDYWGPGTLVTVSS VL: QSVLTQPPSVSEAPRQRVTITCSGSSSNIGNNAVNWYQQLPGKAPKLLIYAAGRASCRTPKDCADPCAKETGCPYGKCMNRKCKCNRCANSGVSDRFSAAKSGTSASLAINGLRSEDEADYYCAAWDDSLNGYVFGTGTKLTVLG |  |  |  |  | 2990 nM | >3500 | 0.9 nM
KB_A12_Vm24: Vm24 in VL CDR2 of KB_A12, IgG (antibody, V domains shown) VH: EVQLVESGGGLVRPGGSLRLSCAASGFTFSSYAMSWVRQAPGKGLEWVSAISGSGGSTYYADSVKGRFTISRDNTKNSLYLQMTSLRADDTAFYYCVKDFGPGYGTGWFDYWGPGTLVTVSS VL: QSVLTQPPSVSEAPRQRVTITCSGSSSNIGNNAVNWYQQLPGKAPKLLIYAAGRAAAISCVGSPECPPKCRAQGCKNGKCMNRKCKCYYCANSGVSDRFSAAKSGTSASLAINGLRSEDEADYYCAAWDDSLNGYVFGTGTKLTVLG | 1220 nM | 102 | 12 nM | 16 nM |  |  | 
KB_A12_AnTx 2 M: AnTx N17A/F32T in VL CDR2 of KB_A12, IgG (antibody, V domains shown) VH: EVQLVESGGGLVRPGGSLRLSCAASGFTFSSYAMSWVRQAPGKGLEWVSAISGSGGSTYYADSVKGRFTISRDNTKNSLYLQMTSLRADDTAFYYCVKDFGPGYGTGWFDYWGPGTLVTVSS VL: QSVLTQPPSVSEAPRQRVTITCSGSSSNIGNNAVNWYQQLPGKAPKLLIYAAGRQKECTGPQHCTNFCRKAKCTHGKCMNRKCKCTNCKANSGVSDRFSAAKSGTSASLAINGLRSEDEADYYCAAWDDSLNGYVFGTGTKLTVLG | 10300 nM | 94 | 110 nM | 85 nM |  |  | 
KB_A12_HsTx1 (antibody, V domains shown) VH: EVQLVESGGGLVRPGGSLRLSCAASGFTFSSYAMSWVRQAPGKGLEWVSAISGSGGSTYYADSVKGRFTISRDNTKNSLYLQMTSLRADDTAFYYCVKDFGPGYGTGWFDYWGPGTLVTVSS VL: QSVLTQPPSVSEAPRQRVTITCSGSSSNIGNNAVNWYQQLPGKAPKLLIYAAGRASCRTPKDCADPCRKETGCPYGKCMNRKCKCNRCANSGVSDRFSAAKSGTSASLAINGLRSEDEADYYCAAWDDSLNGYVFGTGTKLTVLG | 650 nM | 43 | 15 nM | 3.9 nM |  |  | 
KB_A12_ADWX1 short: truncated ADWX-1 in VL CDR2 of KB_A12, IgG (antibody, V domains shown) VH: EVQLVESGGGLVRPGGSLRLSCAASGFTFSSYAMSWVRQAPGKGLEWVSAISGSGGSTYYADSVKGRFTISRDNTKNSLYLQMTSLRADDTAFYYCVKDFGPGYGTGWFDYWGPGTLVTVSS VL: QSVLTQPPSVSEAPRQRVTITCSGSSSNIGNNAVNWYQQLPGKAPKLLIYAAGRVKCKHSRQCLKPCKDAGMRFGKCTNGKCHCTPKANSGVSDRFSAAKSGTSASLAINGLRSEDEADYYCAAWDDSLNGYVFGTGTKLTVLG | 1400 nM | 6 | 251 nM | 170 nM |  |  | 
KB_A12_Odk2: OdK2 in VL CDR2 of KB_A12, IgG (antibody, V domains shown) VH: EVQLVESGGGLVRPGGSLRLSCAASGFTFSSYAMSWVRQAPGKGLEWVSAISGSGGSTYYADSVKGRFTISRDNTKNSLYLQMTSLRADDTAFYYCVKDFGPGYGTGWFDYWGPGTLVTVSS VL: QSVLTQPPSVSEAPRQRVTITCSGSSSNIGNNAVNWYQQLPGKAPKLLIYAAGRGVPTDVKCRGSPQCIQPCKDAGMRFGKCMNGKCHCTPKANSGVSDRFSAAKSGTSASLAINGLRSEDEADYYCAAWDDSLNGYVFGTGTKLTVLG | 2750 nM | 6 | 457 nM | 222 nM |  |  | 
